Experimental data reported in the supplement of paper PMC10567573.

B1: ACSBG2 (parent)
chain: FAQADALKGTLVSTLKEVKPTVFI

Variants of: B1
Experiment: protein stability index of a GFP-peptide fusion (GPS, HEK-293T) (PSI 1-6); higher = more stable
Settings: c terminus: a fixed tail appended
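Note: lentivirally expressed fusions sorted by FACS into six bins by GFP to DsRed ratio, PSI derived from sequencing read proportions per bin multiplied by bin number.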

Going from T14V to T14S, the protein stability index falls from 2.05 to 1.08.

Compared with T14I, T14H is higher in protein stability index: 2.22 for the first, 2.27 for the second.

First: T14D
Second: T14Q
The protein stability index of the first is lower: 1.88 for the first, 1.95 for the second.

First: T14Y
Second: T14N
The protein stability index of the first is higher: 3.04 for the first, 2.26 for the second.

Compared with T14A, T14K is higher in protein stability index: 1.8 for the first, 2.03 for the second.

Going from T14F to T14E, the protein stability index falls from 2.64 to 1.26.

Compared with T14M, T14L is higher in protein stability index: 1.32 for the first, 1.51 for the second.

First: T14P
Second: V12D
The protein stability index of the first is lower: 1.23 for the first, 1.81 for the second.

First: V12A
Second: V12T
The protein stability index of the first is higher: 1.64 for the first, 1.63 for the second.

First: V12I
Second: V12E
The protein stability index of the first is higher: 2.26 for the first, 1.89 for the second.

Compared with V12G, V12C is lower in protein stability index: 1.95 for the first, 1.76 for the second.

First: V12P
Second: V12M
The protein stability index of the first is higher: 1.85 for the first, 1.66 for the second.

First: V12S
Second: V12Q
The protein stability index of the first is lower: 1.34 for the first, 1.52 for the second.

Compared with V12N, V12R is higher in protein stability index: 1.6 for the first, 2.08 for the second.

Going from V12K to V12L, the protein stability index falls from 3.87 to 1.25.

First: V12H
Second: K16F
The protein stability index of the first is lower: 2.12 for the first, 2.41 for the second.

Going from K16W to K16T, the protein stability index rises from 2.4 to 3.25.

First: K16A
Second: K16E
The protein stability index of the first is lower: 1.97 for the first, 2.38 for the second.

First: K16S
Second: K16V
The protein stability index of the first is lower: 2.25 for the first, 2.8 for the second.

Going from K16H to K16D, the protein stability index falls from 2.75 to 1.65.

First: K16P
Second: K16R
The protein stability index of the first is higher: 2.41 for the first, 1.45 for the second.

First: K16C
Second: K16Q
The protein stability index of the first is higher: 2.34 for the first, 1.56 for the second.

Going from E17R to E17P, the protein stability index falls from 1.99 to 1.83.

First: E17I
Second: E17A
The protein stability index of the first is higher: 1.86 for the first, 1.03 for the second.

Going from E17M to E17L, the protein stability index rises from 2.29 to 2.51.

Going from E17C to E17Q, the protein stability index falls from 2.06 to 1.73.

Going from E17V to E17S, the protein stability index falls from 2.23 to 1.81.

First: E17H
Second: E17T
The protein stability index of the first is higher: 3.49 for the first, 3.12 for the second.

Compared with E17D, E17G is higher in protein stability index: 1.48 for the first, 1.95 for the second.

First: E17K
Second: E17N
The protein stability index of the first is lower: 1.45 for the first, 3.2 for the second.

Going from E17F to T21P, the protein stability index falls from 2.07 to 1.22.

First: T21N
Second: T21R
The protein stability index of the first is lower: 1.92 for the first, 2 for the second.

Compared with T21S, T21V is higher in protein stability index: 2.35 for the first, 4.03 for the second.

Going from T21G to T21E, the protein stability index falls from 2.14 to 1.47.

T21D and T21M are the same in protein stability index: 1.82 for the first, 1.82 for the second.

Going from T21Q to T21H, the protein stability index rises from 1.32 to 1.61.

Compared with T21I, T21Y is lower in protein stability index: 4.12 for the first, 1.64 for the second.

First: T21A
Second: T21K
The protein stability index of the first is higher: 1.36 for the first, 1.14 for the second.

First: T21W
Second: P20F
The protein stability index of the first is higher: 3.06 for the first, 2.4 for the second.

First: P20W
Second: P20K
The protein stability index of the first is higher: 2.33 for the first, 1.25 for the second.

Compared with P20Y, P20G is lower in protein stability index: 2.68 for the first, 2.47 for the second.

Compared with P20R, P20Q is lower in protein stability index: 2.28 for the first, 2.13 for the second.

Going from P20N to P20V, the protein stability index falls from 2.42 to 1.91.

Compared with P20D, P20L is higher in protein stability index: 1.51 for the first, 3.23 for the second.

Going from P20S to S13A, the protein stability index falls from 2.9 to 2.1.

Going from S13C to S13F, the protein stability index rises from 1.93 to 2.53.

First: S13M
Second: S13K
The protein stability index of the first is higher: 3.57 for the first, 3.44 for the second.

Going from S13T to S13Q, the protein stability index falls from 2.04 to 1.39.

Going from S13H to S13N, the protein stability index rises from 1.84 to 2.01.

First: S13D
Second: S13I
The protein stability index of the first is lower: 1.85 for the first, 2.4 for the second.

Going from S13Y to S13V, the protein stability index rises from 3.19 to 4.44.

First: S13R
Second: S13L
The protein stability index of the first is lower: 1.46 for the first, 2.05 for the second.

Going from S13E to S13P, the protein stability index rises from 1.27 to 1.41.

First: S13G
Second: K19G
The protein stability index of the first is lower: 1.04 for the first, 3.46 for the second.

Compared with K19M, K19C is lower in protein stability index: 3.1 for the first, 2.65 for the second.

Going from K19N to K19T, the protein stability index rises from 1.48 to 2.53.

First: K19F
Second: K19R
The protein stability index of the first is higher: 3.16 for the first, 1.02 for the second.

Going from K19W to K19D, the protein stability index rises from 1.99 to 2.26.

Compared with K19H, K19E is higher in protein stability index: 1.04 for the first, 1.48 for the second.

Going from K19Y to K19S, the protein stability index rises from 2.36 to 2.45.

Compared with K19A, K19Q is lower in protein stability index: 2.49 for the first, 2.08 for the second.

First: K19P
Second: L11T
The protein stability index of the first is higher: 2.84 for the first, 2.78 for the second.

First: L11V
Second: L15A
The protein stability index of the first is lower: 2.08 for the first, 2.51 for the second.

Going from L15T to L15Y, the protein stability index falls from 1.97 to 1.78.

First: L15S
Second: L15P
The protein stability index of the first is lower: 1.96 for the first, 2 for the second.

Compared with L15D, L15E is higher in protein stability index: 2.19 for the first, 2.39 for the second.

First: L15R
Second: L15Q
The protein stability index of the first is higher: 2.1 for the first, 2.02 for the second.

Compared with L15V, L15W is higher in protein stability index: 1.06 for the first, 1.66 for the second.

First: L15M
Second: L15N
The protein stability index of the first is lower: 1.6 for the first, 1.77 for the second.

First: L15H
Second: L15F
The protein stability index of the first is higher: 1.93 for the first, 1.77 for the second.

Compared with L15K, L15G is lower in protein stability index: 1.8 for the first, 1.4 for the second.

Compared with V22H, V22G is higher in protein stability index: 1.92 for the first, 2.25 for the second.

First: V22F
Second: V22C
The protein stability index of the first is lower: 1.67 for the first, 2.18 for the second.

Going from V22D to V22A, the protein stability index falls from 2.99 to 2.73.

Going from V22I to V22E, the protein stability index falls from 2.43 to 1.94.

Going from V18A to V18Q, the protein stability index falls from 2.63 to 2.04.

Compared with V18K, V18E is higher in protein stability index: 1.92 for the first, 5.23 for the second.

Going from V18I to V18W, the protein stability index rises from 2.48 to 3.71.

First: V18C
Second: V18M
The protein stability index of the first is higher: 3.06 for the first, 1.44 for the second.

First: V18D
Second: V18S
The protein stability index of the first is lower: 1.68 for the first, 1.98 for the second.

Compared with V18L, V18R is higher in protein stability index: 1.04 for the first, 1.89 for the second.

Compared with V18T, V18P is higher in protein stability index: 1.26 for the first, 1.74 for the second.

Going from V18H to V18N, the protein stability index rises from 1.28 to 2.43.

With V18G the protein stability index was 1.79.
